Experiment [1] concerns the target TatBC–His6 complex (GDN-solubilized, purified) (E. coli) (UniProt P69425). As to the kind of experiment: ITC; TatBC–His6 (45 μM) in the cell; titrant 150 μM HiPIP or 85 μM TorA signal peptide; 25 °C; 20 mM MOPS-NaOH, 200 mM NaCl, 1 mM EDTA, 0.01% GDN, pH 8; one-site model; molar ratio counted per TatC–His6. For orientation: In ITC the heat of successive injections is recorded.

Experiment [2] concerns the target TatBC–strepII–His6 complex (E. coli) (UniProt P69425). As to the kind of experiment: SPR; Biacore T200; TatBC complex captured (about 300 RU) on polyclonal TatB antibodies coupled to a CM5 chip; precursor as analyte at 1.9–30 μM, injected for 3 min; 25 °C; 20 mM MOPS-NaOH, 200 mM NaCl, 1 mM EDTA, 0.01% GDN, pH 8; 1:1 binding model. In general terms: In SPR one partner is held on a chip, and binding of the other changes the refractive index at the surface.

In experiment [3] the target is T1, TatBC–His6 complex (GDN-solubilized, purified) (E. coli, UniProt P69425 1-171; P69423 1-258).
T1 sequence (looked up) 1: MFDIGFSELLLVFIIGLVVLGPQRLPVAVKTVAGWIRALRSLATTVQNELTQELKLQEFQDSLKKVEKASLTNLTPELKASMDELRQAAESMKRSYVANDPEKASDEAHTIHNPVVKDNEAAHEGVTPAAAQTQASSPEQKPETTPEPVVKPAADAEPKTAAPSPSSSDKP
T1 sequence (looked up) 2: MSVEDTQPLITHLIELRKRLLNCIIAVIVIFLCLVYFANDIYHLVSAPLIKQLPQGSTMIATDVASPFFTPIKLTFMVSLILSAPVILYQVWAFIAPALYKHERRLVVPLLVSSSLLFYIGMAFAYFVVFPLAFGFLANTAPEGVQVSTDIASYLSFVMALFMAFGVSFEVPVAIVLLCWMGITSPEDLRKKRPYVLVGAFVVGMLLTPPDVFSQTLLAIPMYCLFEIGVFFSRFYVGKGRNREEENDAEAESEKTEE
The experiment in a line: ITC; TatBC–His6 (45 μM) in the cell; titrant 150 μM HiPIP or 85 μM TorA signal peptide; 25 °C; 20 mM MOPS-NaOH, 200 mM NaCl, 1 mM EDTA, 0.01% GDN, pH 8; one-site model; molar ratio counted per TatC–His6. The following applies: both partners purified.

With “high-potential iron–sulfur protein (HiPIP) precursor from Acidithiobacillus ferrooxidans, His6-tagged (natural protein)”, in experiment [1], the Kd was determined as 6 µM and the stoichiometry N (HiPIP per TatC) came out at 0.33.

In experiment [2], “E. coli CueO precursor, hexahistidine-tagged (from UniProt P36649 29-516) (natural protein)” returned a Kd of 4.5 µM, a koff of 0.0018 s⁻¹ and a kon of 400 M⁻¹ s⁻¹.

SRRRFLAQLGGLTVAGMLGPSLLTPRR [TorA signal peptide (residues 10–36)]: in experiment [3], the Kd is approximately 500 nM and the “stoichiometry N” value came to 0.44 peptide per TatC.

For orientation: Kd means the equilibrium constant for the complex coming apart. For orientation: koff means the first-order rate constant of dissociation. The low end stands for a long-lived complex, the high end for a short-lived complex. Usually kon stands for the second-order rate constant of association. Read a high kon as faster complex formation. One may read the stoichiometry N as a count of units in the complex or per binding partner.

The values are drawn from paper PMC5852461 (Biochemistry, 2018).
